In the Human Domainome abundance scans (Beltran et al. 2025):
± gives the uncertainty stated by the source.

B1: Zinc finger MYM-type protein 3, residues 589 to 668; numbered along this chain, Q14202 (parent)
chain: LSCHYCHSLFSGKPEVLDWQDQVFQFCCRDCCEDFKRLRGVVSQCEHCRQEKLLHEKLRFSGVEKSFCSEGCVLLYKQDF

Variants of: B1
Assay: abundance fitness (aPCA) (normalised: wild type 0, dead -1); higher = more abundant; growth selection in yeast, the domain comes from the species named
Details: Homo sapiens

Abundance fitness, by site and new letter:
C45: R -0.742 ± 0.13, S -0.942 ± 0.17, E -1.07 ± 0.29, P -1.1 ± 0.46, L -0.867 ± 0.19, A -0.666 ± 0.2, W -0.983 ± 0.3, T -0.641 ± 0.26, Q -1 ± 0.49, F -0.356 ± 0.26, Y -1.18 ± 0.4, G -0.603 ± 0.095, D -0.658 ± 0.22
E51: W 0.537 ± 0.098, V -0.143 ± 0.12, H 0.675 ± 0.42, P 0.127 ± 0.16, I -0.546 ± 0.32, A -0.394 ± 0.16, R -0.198 ± 0.084, L -0.119 ± 0.12, Q 0.003 ± 0.41, G -0.393 ± 0.12, D 0.187 ± 0.35, C 0.227 ± 0.23, T -0.096 ± 0.18
L53: P -0.091 ± 0.22, W -0.676 ± 0.14, T -0.196 ± 0.27, E 0.064 ± 0.14, N -0.163 ± 0.45, R -0.327 ± 0.11, Q -0.255 ± 0.22, V -0.056 ± 0.092, S -0.154 ± 0.13, G -0.445 ± 0.089, A -0.313 ± 0.14, K 0.187 ± 0.34, M -0.234 ± 0.23
Q44: L 0.854 ± 0.079, D 0.204 ± 0.18, V 0.767 ± 0.072, P 0.818 ± 0.099, R 0.889 ± 0.075, W 0.53 ± 0.095, T 0.959 ± 0.066, Y 1.13 ± 0.34, K 1.04 ± 0.083, F 1.01 ± 0.16, M 0.576 ± 0.14, S 0.39 ± 0.12, G 0.185 ± 0.075, I 0.547 ± 0.37, E 0.49 ± 0.088, C 0.397 ± 0.13, A 0.702 ± 0.075
S43: C -0.062 ± 0.16, P -0.496 ± 0.3, M 0.105 ± 0.11, R -0.174 ± 0.1, G 0.59 ± 0.08, W -0.889 ± 0.29, V 0.286 ± 0.11, Q -0.339 ± 0.18, L -0.576 ± 0.19, D -0.235 ± 0.23, A -0.076 ± 0.097, F -0.144 ± 0.3
V42: W -0.01 ± 0.12, T 0.388 ± 0.12, Q -0.203 ± 0.24, P 0.176 ± 0.48, R -0.085 ± 0.088
C48: S -0.561 ± 0.43, K 0.19 ± 0.34, R -0.553 ± 0.12, W -0.329 ± 0.16, T -1.05 ± 0.46, A -0.845 ± 0.16, E -1.04 ± 0.31, L -0.578 ± 0.23, V -0.741 ± 0.18, P 0.207 ± 0.23
L54: H -0.503 ± 0.41, A -0.41 ± 0.16, V -0.046 ± 0.091, G -0.536 ± 0.095, R -0.664 ± 0.14, D -0.589 ± 0.3, I 0.201 ± 0.23, T -0.226 ± 0.45, S -0.542 ± 0.16, E -0.866 ± 0.44
H47: P -0.742 ± 0.42, V 0.075 ± 0.2, C 0.345 ± 0.4, A -0.169 ± 0.13, S -0.098 ± 0.14, R -0.098 ± 0.089, M -0.061 ± 0.2, K 0.075 ± 0.29, W 0.246 ± 0.13, Q 0.151 ± 0.15, L -0.388 ± 0.14, E -0.406 ± 0.16
K52: R -0.315 ± 0.1, M -0.118 ± 0.28, C 0.546 ± 0.21, E -0.785 ± 0.23, S -0.371 ± 0.16, A -0.244 ± 0.14, W -0.699 ± 0.18, V -0.478 ± 0.22, P -0.998 ± 0.35, G -0.07 ± 0.078
R49: E -0.361 ± 0.18, W -0.327 ± 0.27, M -0.482 ± 0.5, L -0.131 ± 0.11, S 0.283 ± 0.14, A -0.507 ± 0.2, D -0.485 ± 0.46, V -0.785 ± 0.19, T -0.352 ± 0.14, F -0.38 ± 0.2, Y -0.618 ± 0.39, K -0.084 ± 0.19
Q50: T -0.293 ± 0.3, C -0.013 ± 0.24, A -0.641 ± 0.18, W -0.582 ± 0.19, L -0.542 ± 0.16, M 0.172 ± 0.5, P -0.48 ± 0.24, E -0.242 ± 0.11, G -0.436 ± 0.094, S -0.356 ± 0.24, K -0.071 ± 0.21, R 0.01 ± 0.11, Y -0.312 ± 0.21
E46: Y -0.354 ± 0.38, W -0.245 ± 0.14, A 0.932 ± 0.072, C 0.271 ± 0.2, M -0.631 ± 0.27, R -0.741 ± 0.16, P 0.996 ± 0.28, Q 0.281 ± 0.21, T 0.24 ± 0.22, S 0.385 ± 0.11, L -0.116 ± 0.09, K 0.233 ± 0.26, G 0.085 ± 0.093, D 0.228 ± 0.23
H55: E -0.392 ± 0.14, P 0.106 ± 0.19, Q -0.516 ± 0.39, F 0.109 ± 0.12, G -0.126 ± 0.096, C -0.053 ± 0.14, K -0.04 ± 0.17, R 0.057 ± 0.09, T 0.431 ± 0.09, I 0.199 ± 0.35, D 0.35 ± 0.49, N 0.027 ± 0.24, A -0.286 ± 0.14
